Measured values from US20060067886A1, “Gastrin receptor-avid peptide conjugates” (priority 1997, published 2006).
Where “and” joins values, the source holds several entries; their conditions need not be identical. Identical values can stand only once.

How the values were obtained:
[1] = Biodistribution of radiometal-DOTA-BBN conjugates in CF1 normal mice; conditions: 1 hour post-injection
[2] = Stability of 177Lu conjugate (RCP, HPLC recovery); assay type: physicochemical; conditions: wide range of pH values, 24 hours
Experimental: Under identical chromatographic conditions, DOTA-8-Aoc-BBN[7-14]NH2 has a retention time of 20.5 minutes, allowing for peak purification of the radiolabeled conjugate.
To 50 μl (3.4×10^−8 mols) of DOTA-8-Aoc-BBN[7-14]NH2 in 50 μL of 0.2M Ammonium Acetate was added 150 μL of 0.4M Ammonium Acetate. To this solution was added 50 μL of 177LuCl3 (2 mCi in 0.05N HCl, Missouri University Research Reactor). The solution was allowed to incubate at […] for 1 hour, after which […] of 0.002M EDTA was added in order to scavenge uncomplexed Lutetium. Quality control of the final product was determined by reversed-phase HPLC. Peak purification of the labeled species was performed by collecting the sample from the HPLC eluant, into a solution of 1 mg/mL bovine serum albumin/0.1M Na2HPO4. All further analyses were carried out using the HPLC-purified products.
HPLC analysis of each of the new compounds was performed using an analytical C-18 reversed phase column (Phenomenex, 250×4.6 mm, 5 μm). The mobile phase consisted of a linear gradient system, with solvent A corresponding to 100% water with 0.1% trifluoroacetic acid and solvent B corresponding to 100% acetonitrile with 0.1% trifluoroacetic acid. […]

[3] = tested on: PC-3 human tumor xenografts; assay: in vivo

CSCC[C@H](NC(=O)[C@H](CC(C)C)NC(=O)[C@H](Cc1cnc[nH]1)NC(=O)CNC(=O)[C@@H](NC(=O)[C@H](C)NC(=O)[C@H](Cc1c[nH]c2ccccc12)NC(=O)[C@H](CCC(N)=O)NC(=O)CCCCCCCNC(=O)CN1CCN(CC(=O)O)CCN(CC(=O)O)CCN(CC(=O)O)CC1)C(C)C)C(N)=O [177Lu-DOTA-8-Aoc-BBN[7-14]NH2] [metal not drawn]
Avg % ID, Blood [1]: 0.20 ± 0.15 % ID | Avg % ID, Carcass [1]: 4.95 ± 1.41 % ID | Avg % ID, Heart [1]: 0.02 ± 0.04 % ID | Avg % ID, Kidney [1]: 1.62 ± 0.14 % ID | Avg % ID, L. Intestine [1]: 4.63 ± 0.57 % ID | Avg % ID, Liver [1]: 0.31 ± 0.05 % ID | Avg % ID, Muscle [1]: 0.02 ± 0.05 % ID | Avg % ID, Pancreas [1]: 7.01 ± 1.42 % ID | Avg % ID, S. Intestine [1]: 9.55 ± 2.37 % ID | Avg % ID, Spleen [1]: 0.16 ± 0.05 % ID | Avg % ID, Stomach [1]: 0.51 ± 0.15 % ID | Avg % ID/gm, Blood [1]: 0.14 ± 0.10 % ID/gm | Avg % ID/gm, Heart [1]: 0.19 ± 0.36 % ID/gm | Avg % ID/gm, Kidney [1]: 4.97 ± 0.71 % ID/gm | Avg % ID/gm, L. Intestine [1]: 6.17 ± 0.79 % ID/gm | Avg % ID/gm, Liver [1]: 0.23 ± 0.05 % ID/gm | Avg % ID/gm, Lung [1]: 0.20 ± 0.21 % ID/gm | Avg % ID/gm, Muscle [1]: 0.17 ± 0.39 % ID/gm | Avg % ID/gm, Pancreas [1]: 30.83 ± 1.89 % ID/gm | Avg % ID/gm, S. Intestine [1]: 6.47 ± 1.24 % ID/gm | Avg % ID/gm, Spleen [1]: 1.23 ± 0.59 % ID/gm | Avg % ID/gm, Stomach [1]: 1.41 ± 0.44 % ID/gm | stability of the conjugate (RCP) [2]: stability of the conjugate over a wide range of pH values over a time course of 24 hours | Avg % ID, Blood ([3]; 1 hr): 0.62±0.44 % ID | Avg % ID, Carcass ([3]; 1 hr): 6.18 ± 1.01 % ID | Avg % ID, L. Intestine ([3]; 1 hr): 3.64 ± 0.72 % ID | Avg % ID, Muscle ([3]; 1 hr): 0.01 + 0.02 % ID | Avg % ID, Pancreas ([3]; 1 hr): 9.70 ± 1.12 % ID | Avg % ID, S. Intestine ([3]; 1 hr): 8.20 ± 1.72 % ID | Avg % ID, Stomach ([3]; 1 hr): 0.61 ± 0.09 % ID | Avg % ID, Tumor ([3]; 1 hr): 1.15 ± 0.72 % ID | Avg % ID, Urine ([3]; 1 hr): 67.41±2.45 % ID | Avg % ID/gm, Heart ([3]; 1 hr): 0.15 ± 0.22 % ID/gm | Avg % ID/gm, Kidney ([3]; 1 hr): 4.70 ± 0.95 % ID/gm | Avg % ID/gm, L. Intestine ([3]; 1 hr): 3.29 ± 0.61 % ID/gm | Avg % ID/gm, Liver ([3]; 1 hr): 0.30 ± 0.05 % ID/gm | Avg % ID/gm, Lung ([3]; 1 hr): 0.18 ± 0.09 % ID/gm | Avg % ID/gm, Muscle ([3]; 1 hr): 0.11 ± 0.13 % ID/gm | Avg % ID/gm, Pancreas ([3]; 1 hr): 38.53 ± 3.61 % ID/gm | Avg % ID/gm, S. Intestine ([3]; 1 hr): 5.60 ± 0.46 % ID/gm | Avg % ID/gm, Spleen ([3]; 1 hr): 0.33 ± 0.51 % ID/gm | Avg % ID/gm, Stomach ([3]; 1 hr): 1.38 ± 0.52 % ID/gm | Avg % ID/gm, Tumor ([3]; 1 hr): 4.22±1.09 % ID/gm | Avg % ID, Blood ([3]; 4 hrs): 0.12 ± 0.11 % ID | Avg % ID, Carcass ([3]; 4 hrs): 2.52 ± 1.18 % ID | Avg % ID, Heart ([3]; 4 hrs): 0.01 + 0.02 % ID | Avg % ID, Kidney ([3]; 4 hrs): 0.61 ± 0.08 % ID | Avg % ID, L. Intestine ([3]; 4 hrs): 7.28 ± 4.23 % ID | Avg % ID, Liver ([3]; 4 hrs): 0.15 ± 0.03 % ID | Avg % ID, Lung ([3]; 4 hrs): 0.05 + 0.09 % ID | Avg % ID, Muscle ([3]; 4 hrs): 0.02 + 0.03 % ID | Avg % ID, Pancreas ([3]; 4 hrs): 5.23 ± 1.68 % ID | Avg % ID, S. Intestine ([3]; 4 hrs): 2.51 ± 0.75 % ID | Avg % ID, Spleen ([3]; 4 hrs): 0.05 ± 0.02 % ID | Avg % ID, Stomach ([3]; 4 hrs): 0.22 ± 0.06 % ID | Avg % ID, Tumor ([3]; 4 hrs): 0.78 ± 0.27 % ID | Avg % ID, Urine ([3]; 4 hrs): 79.76 ± 6.48 % ID | Avg % ID/gm, Blood ([3]; 4 hrs): 0.08 ± 0.07 % ID/gm | Avg % ID/gm, Heart ([3]; 4 hrs): 0.07 ± 0.13 % ID/gm | Avg % ID/gm, Kidney ([3]; 4 hrs): 2.18 ± 0.31 % ID/gm | Avg % ID/gm, L. Intestine ([3]; 4 hrs): 7.29 ± 3.73 % ID/gm | Avg % ID/gm, Liver ([3]; 4 hrs): 0.13 ± 0.02 % ID/gm | Avg % ID/gm, Lung ([3]; 4 hrs): 0.11 ± 0.15 % ID/gm | Avg % ID/gm, Muscle ([3]; 4 hrs): 0.15 ± 0.21 % ID/gm | Avg % ID/gm, Pancreas ([3]; 4 hrs): 22.18 ± 4.66 % ID/gm | Avg % ID/gm, S. Intestine ([3]; 4 hrs): 1.93 ± 0.96 % ID/gm | Avg % ID/gm, Spleen ([3]; 4 hrs): 0.60 ± 0.36 % ID/gm | Avg % ID/gm, Stomach ([3]; 4 hrs): 0.34 ± 0.34 % ID/gm | Avg % ID/gm, Tumor ([3]; 4 hrs): 3.03±0.91 % ID/gm | Avg % ID, Blood ([3]; 24 hrs): 0.01 + 0.02 % ID | Avg % ID, Carcass ([3]; 24 hrs): 2.08 + 3.14 % ID | Avg % ID, Kidney ([3]; 24 hrs): 0.17 ± 0.06 % ID | Avg % ID, L. Intestine ([3]; 24 hrs): 1.75 ± 0.23 % ID | Avg % ID, Muscle ([3]; 24 hrs): 0.02 + 0.03 % ID | Avg % ID, Pancreas ([3]; 24 hrs): 1.31 ± 0.45 % ID | Avg % ID, S. Intestine ([3]; 24 hrs): 0.67 ± 0.12 % ID | Avg % ID, Spleen ([3]; 24 hrs): 0.01 + 0.01 % ID | Avg % ID, Stomach ([3]; 24 hrs): 0.09 ± 0.06 % ID | Avg % ID, Tumor ([3]; 24 hrs): 0.29 ± 0.18 % ID | Avg % ID, Urine ([3]; 24 hrs): 85.9±1.4 % ID and 85.85 ± 1.39 % ID | Avg % ID/gm, Blood ([3]; 24 hrs): 0.01 ± 0.01 % ID/gm | Avg % ID/gm, Heart ([3]; 24 hrs): 0.06 ± 0.09 % ID/gm | Avg % ID/gm, Kidney ([3]; 24 hrs): 0.60 ± 0.20 % ID/gm | Avg % ID/gm, L. Intestine ([3]; 24 hrs): 1.90 ± 0.53 % ID/gm | Avg % ID/gm, Lung ([3]; 24 hrs): 0.14 ± 0.26 % ID/gm | Avg % ID/gm, Muscle ([3]; 24 hrs): 0.10 ± 0.17 % ID/gm | Avg % ID/gm, Pancreas ([3]; 24 hrs): 4.97 ± 2.28 % ID/gm | Avg % ID/gm, S. Intestine ([3]; 24 hrs): 0.48 ± 0.14 % ID/gm | Avg % ID/gm, Spleen ([3]; 24 hrs): 0.08 ± 0.10 % ID/gm | Avg % ID/gm, Stomach ([3]; 24 hrs): 0.19 ± 0.13 % ID/gm | Avg % ID/gm, Tumor ([3]; 24 hrs): 1.54±1.14 % ID/gm
